Measurements published in patent US8710181B2, “Use of tris(hydroxymethyl) aminomethane for the stabilization of peptides, polypeptides and proteins” (Novo Nordisk A/S, priority 2004, dated 2014).
One block for each substance: values may come before it.

Experiments:
Type in all cases: physicochemical
[1] = Repeated runs on Source 30S column 45 cm i.d. with TRIS: pressure, analysis of column material for aggregated/fibrillated proteins (Example 4); conditions: after 283 runs on Source 30S column, 10 mM Tris
Experimental: (§1) Gelation/fibrillation/aggregation can be estimated by the Thioflavin T test […] resulting in a colored response the degree of gelation. Another result would be increased viscosity of the gelated solution resulting in increasing back pressure on chromatographic columns during multiple runs—this is usually the first indication of gelation taking place, […].
An aqueous solution of Arg34-GLP-1[7-37] containing approximately 2% by weight ethanol and 10 mM of tris(hydroxymethyl)aminomethane, at pH 9.2 was made at room temperature, pH was adjusted to 3.2.
Aliquot of the solution was loaded to an ion-exchange column, 45 cm i.d., Source 30S, Amersham Bioscience, at pH 3.3 and after wash of the column with an acid buffer containing ethanol and citric acid, the product was eluted with an aqueous solution containing 10 mM Tris at pH 9.2. The column was regenerated and loaded again with loading solution.

[2] = Room temperature stability of Arg34-GLP-1[7-37] loading solution and column eluate with TRIS, monitored by RP-HPLC (Example 1); conditions: for Arg34-GLP-1[7-37] eluate concentration: 10 mM Tris pH 9.2, RP-HPLC; for Arg34-GLP-1[7-37] concentration in loading solution: 10 mM TRIS, pH adjusted to 3.2, RP-HPLC
Experimental: An aqueous solution of Arg34-GLP-1[7-37] containing approximately 2% by weight ethanol and 10 mM of tris(hydroxymethyl)aminomethane, at pH 9.2 was made at room temperature, pH was adjusted to 3.2. The room temperature stability of the solution was monitored by RP-HPLC.
The solution was loaded on an ion-exchange column, Source 30S, Amersham Bioscience, at pH 3.23 and after washing the column with an acid buffer containing ethanol and citric acid, the product was eluted with an aqueous solution containing 10 mM Tris at pH 9.2. The room temperature stability of the eluate from the column was monitored by RP-HPLC (Table 1)/(FIG. 1).

[3] = Repeated preparative runs on Source 30S column 20 cm I.D. with TRIS: pressure and fibrillation (Example 2)
Experimental: as §1
(§2) An aqueous solution of Arg34-GLP-1[7-37] containing approximately 2% by weight ethanol and 10 mM of tris(hydroxymethyl)aminomethane, at pH 9.2 was made at room temperature by dissolution of an Arg34-GLP-1[7-37] isoelectric precipitate directly in the solution. Subsequently, pH was adjusted to 3.2.
A preparative aliquot of the solution was loaded on a large scale ion-exchange column, 20 cm I.D. (internal diameter), Source 30S, Amersham Bioscience, at pH 3.3 and after washing the column with an acid buffer containing ethanol and citric acid to remove impurities, the product was eluted with an aqueous solution containing 10 mM Tris at pH 9.2. The column was regenerated with 1 M NaOH, equilibrated with the acidic wash buffer, and the column was loaded again with loading solution. Eluate from the Source 30S column was automatically pH adjusted with 100 mM tris buffer pH 7.4 to pH 8.0.

[4] = Comparative room temperature stability with glycine instead of TRIS, monitored by RP-HPLC (Comparative Example 1)
Experimental: A comparative test with 20-200 mM glycine instead of tris(hydroxymethyl)aminomethane was done.
An aqueous solution of Arg34-GLP-1[7-37] containing approximately 2% by weight ethanol and 20 mM of glycine, at pH 9.0 was made at room temperature, pH was adjusted to approximately 3.3.
The solution was loaded to an ion-exchange column, Source 30S, Amersham Bioscience, at pH 3.3 and after wash of the column with an acid buffer containing ethanol and citric acid, the product was eluted with an aqueous solution containing 200 mM Glycine at pH 9.5. The stability of the eluate from the column was monitored by RP-HPLC at room temperature for 5 days.

[5] = Repeated preparative runs on Source 30Q and RP-HPLC C-18 columns with TRIS: pressure and fibrillation (Example 3)
Excerpt: as §1
as §2, with “N^ε-hexadecanoyl-γ-glutamyl-Lys26-Arg34-GLP-1[7-37]” for “Arg34-GLP-1[7-37]”, “solution.” for “solution. Subsequently, pH was adjusted to 3.2.”
A preparative aliquot of the solution was loaded on a large scale ion-exchange column, 45 cm I.D. (internal diameter), Source 30Q, Amersham Bioscience, at pH 9.2 and after washing the column with an buffer containing 20 mM tris and 63% by weight ethanol (pH 7.5) to remove impurities, the product was eluted by a sodium chloride gradient at pH 7.5 in a 20 mM tris buffer containing 63% by weight ethanol. The column was regenerated with 1 M NaOH, equilibrated with the pH 7.5 wash buffer, and the column was loaded again with loading solution. Eluate from the Source 30Q column was automatically diluted with water before it was loaded on another large scale column, RP-HPLC column 100 Å C-18, particle diameter 15 μm, column I.D. 45 cm, and eluted with a buffer solution containing 20 mM tris, 125 mM sodium chloride and approx. 45% by weight ethanol at pH 6.9. The column was regenerated with a 70% ethanol solution and subsequently equilibrated with a 25% ethanol solution containing 20 mM Tris.

[6] = Repeated runs on Source 30Q and RP-HPLC columns with TRIS: pressure, analysis of column material for aggregated/fibrillated proteins (Example 5); conditions: 20 mM tris
Excerpt: as §1
An aqueous solution of N^ε-hexadecanoyl-γ-glutamyl-Lys26-Arg34-GLP-1[7-37] containing approximately 2% by weight ethanol and 10 mM of tris(hydroxymethyl)aminomethane, at pH 9.2 was made at room temperature. Aliquot of the solution was loaded to an ion-exchange column, 45 cm i.d., Source 30Q, Amersham Bioscience, at pH 9.2 and after wash of the column with an neutral buffer containing 20 mM tris and 63% by weight ethanol (pH 7.5), the product was eluted by an sodium chloride gradient at pH 7.5 in a 20 mM tris buffer containing 63% by weight ethanol. The column was regenerated and loaded again with loading solution. One eluate from the Source 30Q column was automatically diluted with water before it was applied to an other column, RP-HPLC column 100 Å C-18, particle diameter i.d. 15 μm, column i.d. 45 cm, and eluted with a buffer containing 20 mM tris, 125 mM sodium chloride and approx. 45% by weight ethanol at pH 6.9.

[7] = after 60 runs on Source 30S column, 20 cm I.D., 10 mM Tris
[8] = after 60 runs on both Source 30Q column and RP-HPLC column, tris buffers with ethanol
[9] = after 77 runs on Source 30Q column, 63% ethanol

Substance: Arg34-GLP-1[7-37]
change in pressure on column [1]: without change in pressure | proteins or aggregated/fibrillated proteins on the column material [1]: no observation of proteins or aggregated/fibrillated proteins | Arg34-GLP-1[7-37] eluate concentration ([2]; Day 0, Source 30S eluate): 1.4 mg/mL | Arg34-GLP-1[7-37] concentration in loading solution ([2]; Day 0, approx. 2% ethanol): 1.7 mg/mL | Arg34-GLP-1[7-37] eluate concentration ([2]; Day 1, Source 30S eluate): 1.4 mg/mL | Arg34-GLP-1[7-37] concentration in loading solution ([2]; Day 1, approx. 2% ethanol): 1.7 mg/mL | Arg34-GLP-1[7-37] eluate concentration ([2]; Day 2, Source 30S eluate): 1.4 mg/mL | Arg34-GLP-1[7-37] concentration in loading solution ([2]; Day 2, approx. 2% ethanol): 1.7 mg/mL | Arg34-GLP-1[7-37] eluate concentration ([2]; Day 3, Source 30S eluate): 1.3 mg/mL | Arg34-GLP-1[7-37] concentration in loading solution ([2]; Day 5, approx. 2% ethanol): 1.7 mg/mL | Gelation/fibrillation/aggregation ([2]; loading solution and eluate with 10 mM TRIS): not observed | fibrillation in loading solution and eluate ([3]; 60 runs, Source 30S, 10 mM TRIS loading solution, eluate adjusted to pH 8.0 with tris buffer): no fibrillation was observed | change in pressure on column [3, 7]: no change in pressure was observed | fibrillation on the column [3, 7]: no fibrillation had occurred on the column | stability at room temperature (fibrillation) ([4]; eluate, 200 mM Glycine pH 9.5): less than one day | stability at room temperature (fibrillation) ([4]; loading solution, 20 mM glycine, approx. 2% ethanol, pH approx. 3.3): less than one day

fibrillation in loading solutions and eluates ([5]; 60 runs, Source 30Q and RP-HPLC, 10-20 mM tris): no fibrillation was observed | change in pressure on column [5, 8]: no change in pressure was observed | change in pressure on column [6, 9]: without change in pressure
Substance: N^ε-hexadecanoyl-γ-glutamyl-Lys26-Arg34-GLP-1[7-37]
fibrillation on the column [5, 8]: no fibrillation had occurred on the column | aggregated/fibrillated proteins on the column material ([6]; RP-HPLC column 100 Å C-18 after 49 runs, 125 mM NaCl, approx. 45% ethanol, pH 6.9): no observations of aggregated/fibrillated proteins | aggregated/fibrillated proteins on the column material [6, 9]: no observation of aggregated/fibrillated proteins
